Source: publication PMC5886543, “A staphylococcal anti-sigma factor possesses a single-domain, carries different denaturant-sensitive regions and unfolds via two intermediates” (PLoS ONE, 2018)

Target: the molecule itself
Assay: cross-linking; rRsbW 10 uM in buffer B (20 mM phosphate pH 8.0, 100 mM NaCl, 5% glycerol), 0.1% glutaraldehyde, 2 min, 25 C; SDS-13.5% PAGE; no denaturant

B1: rRsbW, a recombinant S. aureus RsbW (enzyme, Staphylococcus aureus Newman, UniProt A6QIR1 1-159, looked up)
chain: MQSKEDFIEMRVPASAEYVSLIRLTLSGVFSRAGATYDDIEDAKIAVSEAVTNAVKHAYKENNNVGIINIYFEILEDKIKIVISDKGDSFDYETTKSKIGPYDKDENIDFLREGGLGLFLIESLMDEVTVYKESGVTISMTKYIKKEQVRNNGERVEIS
notes: RsbW of Staphylococcus aureus Newman, UniProt A6QIR1; 480 bp insert amplified from genomic DNA with primers rsbWF (begins at the ATG) and rsbWR; native RsbW 17.92 kDa, rRsbW 21.74 kDa. numbers count on: rRsbW with its 36 N-terminal extra residues (RsbW residue 1 is rRsbW residue 37); Surmised: the 36 extra residues are those that pET28a adds before its EcoRI site; also called anti-sigma factor; …
  stoichiometry N: 2
